# Several values for one entry are separate records, joined by “and”; a condition that tells them apart may be missing. Equal values may be shown once.
# Tests used:
# [1] = target: HIV CA protein (p24) (human immunodeficiency virus (HIV)); test: co-sedimentation
# SEC-MALS = target: the molecule itself; test: SEC-MALS
Molecule,critical concentration [1],stoichiometry N (SEC-MALS)
HIV CA protein (p24) (natural protein),10 µM,
"Rous sarcoma virus (RSV) CA protein, wild type (natural protein) PVVIKTEGPAWTPLEPKLITRLADTVRTKGLRSPITMAEVEALMSSPLLPHDVTNLMRVILGPAPYALWMDAWGVQLQTVIAAATRDPRHPANGQGRGERTNLNRLKGLADGMVGNPQGQAALLRPGELVAITASALQAFREVARLAEPAGPWADIMQGPSESFVDFANRLIKAVEGSDLPPSARAPVIIDCFRQKSQPDIQQLIRTAPSTLTTPGEIIKYVLDRQKTAPLTDQGIA",,2 and 3 and 4
